Laboratory results: IntAct's records for PubMed 17141806

B1: Disintegrin and metalloproteinase domain-containing protein 22 (Homo sapiens), Q9P0K1-1 (parent)
chain: MQAAVAVSVPFLLLCVLGTCPPARCGQAGDASLMELEKRKENRFVERQSIVPLRLIYRSGGEDESRHDALDTRVRGDLGGPQLTHVDQASFQVDAFGTSFILDVVLNHDLLSSEYIERHIEHGGKTVEVKGGEHCYYQGHIRGNPDSFVALSTCHGLHGMFYDGNHTYLIEPEENDTTQEDFHFHSVYKSRLFEFSLDDLPSEFQQVNITPSKFILKPRPKRSKRQLRRYPRNVEEETKYIELMIVNDHLMFKKHRLSVVHTNTYAKSVVNMADLIYKDQLKTRIVLVAMETWATDNKFAISENPLITLREFMKYRRDFIKEKSDAVHLFSGSQFESSRSGAAYIGGICSLLKGGGVNEFGKTDLMAVTLAQSLAHNIGIISDKRKLASGECKCEDTWSGCIMGDTGYYLPKKFTQCNIEEYHDFLNSGGGACLFNKPSKLLDPPECGNGFIETGEECDCGTPAECVLEGAECCKKCTLTQDSQCSDGLCCKKCKFQPMGTVCREAVNDCDIRETCSGNSSQCAPNIHKMDGYSCDGVQGICFGGRCKTRDRQCKYIWGQKVTASDKYCYEKLNIEGTEKGNCGKDKDTWIQCNKRDVLCGYLLCTNIGNIPRLGELDGEITSTLVVQQGRTLNCSGGHVKLEEDVDLGYVEDGTPCGPQMMCLEHRCLPVASFNFSTCLSSKEGTICSGNGVCSNELKCVCNRHWIGSDCNTYFPHNDDAKTGITLSGNGVAGTNIIIGIIAGTILVLALILGITAWGYKNYREQRQLPQGDYVKKPGDGDSFYSDIPPGVSTNSASSSKKRSNGLSHSWSERIPDTKHISDICENGRPRSNSWQGNLGGNKKKIRGKRFRPRSNSTETLSPAKSPSSSTGSIASSRKYPYPMPPLPDEDKKVNRQSARLWETSI

Variants of: B1
Conditions: with hck_human HCK
For Y882A, the “effect of a mutation on the interaction” value was “decreasing interaction”.
